Results taken from IntAct's records for PubMed 21984795.

B1: Biopolymer transport protein ExbD (Escherichia coli (strain K12)), P0ABV2 (parent)
chain: MAMHLNENLDDNGEMHDINVTPFIDVMLVLLIIFMVAAPLATVDVKVNLPASTSTPQPRPEKPVYLSVKADNSMFIGNDPVTDETMITALNALTEGKKDTTIFFRADKTVDYETLMKVMDTLHQAGYLKIGLVGEETAKAK
B2: Biopolymer transport protein ExbD (Escherichia coli (strain K12)), P0ABV2 (parent)
chain: B1 chain
partner: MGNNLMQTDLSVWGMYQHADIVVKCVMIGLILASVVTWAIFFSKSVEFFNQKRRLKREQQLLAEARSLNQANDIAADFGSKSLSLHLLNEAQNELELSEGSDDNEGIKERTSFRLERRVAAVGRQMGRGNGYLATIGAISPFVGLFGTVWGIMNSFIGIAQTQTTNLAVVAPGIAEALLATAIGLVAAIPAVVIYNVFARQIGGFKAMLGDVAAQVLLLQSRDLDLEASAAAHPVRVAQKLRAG

Variants of: B1
Conditions: with tonb_ecoli tonB
In the case of MAMHLNENLDDNGEMHDINVTPFIDVMLVLLIIFMVAAPLATVDVKVNLPASTSTPQPRPEKPVYLSVKADNSMFIGNDPVTDETMITALNCLTEGKKDTTIFFRADKTVDYETLMKVMDTLHQAGYLKIGLVGEETAKAK [A92C], the “effect of a mutation on the interaction” value is reported as “increasing interaction”.
With MAMHLNENLDDNGEMHDINVTPFIDVMLVLLIIFMVAAPLATVDVKVNLPASTSTPQPRPEKPVYLSVKADNSMFIGNDPVTDETMITALNALTEGKKDTTIFFRADCTVDYETLMKVMDTLHQAGYLKIGLVGEETAKAK [K108C] the “effect of a mutation on the interaction” value was “increasing interaction”.
For MAMHLNENLDDNGEMHDINVTPFIDVMLVLLIIFMVAAPLATVDVKVNLPASTSTPQPRPEKPVYLSVKADNSMFIGNDPVTDETMITALNALTECKKDTTIFFRADKTVDYETLMKVMDTLHQAGYLKIGLVGEETAKAK [G96C], the “effect of a mutation on the interaction” value was “increasing interaction”.
In the case of MAMHLNENLDDNGEMHDINVTPFIDVMLVLLIIFMVAAPLATVDVKVNLPASTSTPQPRPEKPVYLSVKADNSMFIGNDPVTDETMITALNALTEGKKDTTIFFRADKTVDYCTLMKVMDTLHQAGYLKIGLVGEETAKAK [E113C], the “effect of a mutation on the interaction” value is reported as “increasing interaction”.
For MAMHLNENLDDNGEMHDINVTPFIDVMLVLLIIFMVAAPLATVDVKVNLPASTSTPQPRPEKPVYLSVKADNSMFIGNDPVTDETMITALNALTEGKKDTTIFFRACKTVDYETLMKVMDTLHQAGYLKIGLVGEETAKAK [D107C], the “effect of a mutation on the interaction” value was “increasing interaction”.
MAMHLNENLDDNGEMHDINVTPFIDVMLVLLIIFMVAAPLATVDVKVNLPASTSTPQPRPEKPVYLSVKADNSMFIGNDPVTDETMITALNALTEGKKDTTIFFRADKTVCYETLMKVMDTLHQAGYLKIGLVGEETAKAK [D111C] was tested, and the “effect of a mutation on the interaction” value was “increasing interaction”.
With MAMHLNENLDDNGEMHDINVTPFIDVMLVLLIIFMVAAPLATVDVKVNLPASTSTPQPRPEKPVYLSVKADNSMFIGNDPVTDETMITALNALTEGKKDTTIFFRADKTVDYETLCKVMDTLHQAGYLKIGLVGEETAKAK [M116C] the “effect of a mutation on the interaction” value was “increasing interaction”.
With MAMHLNENLDDNGEMHDINVTPFIDVMLVLLIIFMVAAPLATVDVKVNLPASTSTPQPRPEKPVYLSVKADNSMFIGNDPVTDETMITALNALTEGKKDTTCFFRADKTVDYETLMKVMDTLHQAGYLKIGLVGEETAKAK [I102C] the “effect of a mutation on the interaction” value was “increasing interaction”.
With MAMHLNENLDDNGEMHDINVTPFIDVMLVLLIIFMVAAPLATVDVKVNLPASTSTPQPRPEKPVYLSVKADNSMFIGNDPVTDETMITALNALTEGKKDTTIFFRADKTVDCETLMKVMDTLHQAGYLKIGLVGEETAKAK [Y112C] the “effect of a mutation on the interaction” value was “increasing interaction”.
For MAMHLNENLDDNGEMHDINVTPFIDVMLVLLIIFMVAAPLATVDVKVNLPASTSTPQPRPEKPVYLSVKADNSMFIGNDPVTDETMITALNALTEGKKDTTIFFRADKCVDYETLMKVMDTLHQAGYLKIGLVGEETAKAK [T109C], the “effect of a mutation on the interaction” value was “increasing interaction”.
With MAMHLNENLDDNGEMHDINVTPFIDVMLVLLIIFMVAAPLATVDVKVNLPASTSTPQPRPEKPVYLSVKADNSMFIGNDPVTDETMITALNALTEGKKDTTIFFRADKTCDYETLMKVMDTLHQAGYLKIGLVGEETAKAK [V110C] the “effect of a mutation on the interaction” value was “increasing interaction”.
With MAMHLNENLDDNGEMHDINVTPFIDVMLVLLIIFMVAAPLATVDVKVNLPASTSTPQPRPEKPVYLSVKADNSMFIGNDPVTDETMITALNALTEGKKDTTIFFRADKTVDYETLMKVMCTLHQAGYLKIGLVGEETAKAK [D120C] the “effect of a mutation on the interaction” value was “increasing interaction”.

Variants of: B2
Conditions: with exbb_ecoli exbB
With MAMHLNENLDDNGEMHDINVTPFIDVMLVLLIIFMVAAPLATVDVKVNLPASTSTPQPRPEKPVYLSVKADNSMFIGNDPVTDETMITALNALTEGKKDTTIFFRADKTVDYCTLMKVMDTLHQAGYLKIGLVGEETAKAK [E113C] the “effect of a mutation on the interaction” value was “increasing interaction”.
In the case of MAMHLNENLDDNGEMHDINVTPFIDVMLVLLIIFMVAAPLATVDVKVNLPASTSTPQPRPEKPVYLSVKADNSMFIGNDPVTDETMITALNALTEGKKDTTIFFRADKTVDYETLCKVMDTLHQAGYLKIGLVGEETAKAK [M116C], the “effect of a mutation on the interaction” value is reported as “increasing interaction”.
With MAMHLNENLDDNGEMHDINVTPFIDVMLVLLIIFMVAAPLATVDVKVNLPASTSTPQPRPEKPVYLSVKADNSMFIGNDPVTDETMITALNALTEGKKDTTIFFRADCTVDYETLMKVMDTLHQAGYLKIGLVGEETAKAK [K108C] the “effect of a mutation on the interaction” value was “increasing interaction”.
MAMHLNENLDDNGEMHDINVTPFINVMLVLLIIFMVAAPLATVDVKVNLPASTSTPQPRPEKPVYLSVKADNSMFIGNDPVTDETMITALNALTEGKKDTTIFFRADKTVDYETLMKVMDTLHQAGYLKIGLVGEETAKAK [D25N] was tested, and the “effect of a mutation on the interaction” value was “disrupting interaction”.
In the case of MAMHLNENLDDNGEMHDINVTPFIDVMLVLLIIFMVAAPLATVDVKVNLPASTSTPQPRPEKPVYLSVKADNSMFIGNDPVTDETMITALNALTEGKKDTTIFFRADKTVDCETLMKVMDTLHQAGYLKIGLVGEETAKAK [Y112C], the “effect of a mutation on the interaction” value is reported as “increasing interaction”.
